The values that follow come from patent US20240239915A1 (Zymeworks, published 2024).

Read-outs that look alike come from different tables or passages of the source.

Test [1] deals with T1, Recombinant Human Fc gamma RIIA/CD32a (H167) Protein (R&D Systems), His-tagged (human, UniProt P12318 34-218).
T1 construct: also called human FcγRIIa (H167); hFcγRIIa (H167)
T1 sequence: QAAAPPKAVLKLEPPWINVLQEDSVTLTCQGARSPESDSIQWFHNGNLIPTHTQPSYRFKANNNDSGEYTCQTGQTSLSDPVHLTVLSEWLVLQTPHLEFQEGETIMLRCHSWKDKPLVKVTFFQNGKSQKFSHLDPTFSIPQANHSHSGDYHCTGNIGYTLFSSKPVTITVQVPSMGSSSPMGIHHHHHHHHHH
Nature of the test: SPR (Biacore T200); receptor immobilized directly on CM5 chip, antibody as analyte at 4.7 µM.

For test [2], the target named is T2, Recombinant Human Fc gamma RIIB/C (CD32b/c) Protein (R&D Systems), His-tagged (human, UniProt P31994 46-217).
T2 construct: also called human FcγRIIb/c; hFcγRIIb/c
T2 sequence: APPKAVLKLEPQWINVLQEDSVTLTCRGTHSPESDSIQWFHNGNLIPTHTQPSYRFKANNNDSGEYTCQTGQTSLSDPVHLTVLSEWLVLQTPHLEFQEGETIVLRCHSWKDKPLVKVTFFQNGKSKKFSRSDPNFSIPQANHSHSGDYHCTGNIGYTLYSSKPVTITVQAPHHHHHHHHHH
The test is described as above.

The target in test [3] is T3, Recombinant Human Fc gamma RIIIA/CD16a protein (R&D Systems), His-tagged (human, UniProt P08637 17-208).
T3 construct: also called human FcγRIIIa; hFcγRIIIa
T3 sequence (P08637 other isoform, or with tags, fused parts or gaps): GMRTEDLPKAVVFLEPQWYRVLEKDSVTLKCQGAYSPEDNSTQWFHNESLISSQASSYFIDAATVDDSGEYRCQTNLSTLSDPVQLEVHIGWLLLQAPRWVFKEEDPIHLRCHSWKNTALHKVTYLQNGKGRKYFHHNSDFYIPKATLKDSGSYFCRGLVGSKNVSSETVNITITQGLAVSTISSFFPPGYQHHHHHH
The test is described as above.

Test [4] deals with T4, Recombinant Human Fc gamma RIIIA/CD16a (V176F) Protein (R&D Systems), His-tagged (human, UniProt P08637 17-208).
T4 construct: no further substitution applied; also called human FcγRIIIa (V176F); hFcγRIIIa (V176F)
T4 sequence (P08637 other isoform, or with tags, fused parts or gaps V176F V176F): as the sequence (P08637 other isoform, or with tags, fused parts or gaps) above, with V160F counted along it
Described as above.

In test [5] the target is T5, Recombinant Human Fc gamma RIIIB/CD16b Protein (R&D Systems), His-tagged (human, UniProt O75015 20-208).
T5 construct: also called human FcγRIIIb; hFcγRIIIb
T5 chain: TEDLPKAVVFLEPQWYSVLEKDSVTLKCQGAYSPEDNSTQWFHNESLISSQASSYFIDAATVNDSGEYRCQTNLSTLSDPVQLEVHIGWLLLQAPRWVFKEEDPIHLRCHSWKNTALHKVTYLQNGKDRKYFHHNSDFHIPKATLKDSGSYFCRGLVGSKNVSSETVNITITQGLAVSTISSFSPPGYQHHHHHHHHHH
The test is described as above.

Test [6] concerns the target T6, Recombinant Cynomolgus Fc gamma RIIA/CD32a Protein (R&D Systems), His-tagged (cynomolgus).
T6 construct: also called cynomolgus FcγRIIa; cFcγRIIa
T6 chain: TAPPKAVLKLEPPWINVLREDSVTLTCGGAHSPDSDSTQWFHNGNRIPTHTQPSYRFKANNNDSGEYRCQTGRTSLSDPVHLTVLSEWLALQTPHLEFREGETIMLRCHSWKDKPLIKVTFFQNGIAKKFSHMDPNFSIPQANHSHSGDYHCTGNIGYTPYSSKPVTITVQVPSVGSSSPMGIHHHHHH
The description is as above.

The target in test [7] is T7, Recombinant Cynomolgus Fc gamma RIIB protein (R&D Systems), His-tagged (cynomolgus).
T7 construct: also called cynomolgus FcγRIIb; cFcγRIIb
T7 chain: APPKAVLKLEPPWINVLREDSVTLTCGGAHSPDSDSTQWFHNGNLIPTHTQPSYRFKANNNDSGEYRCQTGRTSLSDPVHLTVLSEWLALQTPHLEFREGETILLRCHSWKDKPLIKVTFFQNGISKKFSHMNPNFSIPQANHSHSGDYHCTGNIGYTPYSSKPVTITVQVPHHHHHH
The test is described as above.

Test [8] deals with T8, Recombinant Cynomolgus Fc gamma RIII/CD16 Protein (R&D Systems), His-tagged (cynomolgus, UniProt Q8SPW2 17-208).
T8 construct: also called cynomolgus FcγRIII; cFcγRIII
T8 chain: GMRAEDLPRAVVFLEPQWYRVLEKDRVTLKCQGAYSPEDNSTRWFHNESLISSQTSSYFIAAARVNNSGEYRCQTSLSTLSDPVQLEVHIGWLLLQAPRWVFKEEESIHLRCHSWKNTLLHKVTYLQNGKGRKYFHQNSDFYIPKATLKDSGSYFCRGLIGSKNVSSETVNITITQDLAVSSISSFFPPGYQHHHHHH
The test is described as above.

The target of test [9] is T1, Recombinant Human Fc gamma RIIA/CD32a …. Described as above. The source holds these as a separate data set.
For test [10], the target named is T2, Recombinant Human Fc gamma RIIB/C …. Described as above. The source holds these as a separate data set.
The target of test [11] is T3, Recombinant Human Fc gamma RIIIA/CD16a …. The test is described as above. The source holds these as a separate data set.
Test [12] deals with T4, Recombinant Human Fc gamma RIIIA/CD16a …. The test is described as above. This is another data set of the same source.
The target of test [13] is T5, Recombinant Human Fc gamma RIIIB/CD16b …. Described as above.
In test [14] the target is T6, Recombinant Cynomolgus Fc gamma …. The test is described as above.
In test [15] the target is T7, Recombinant Cynomolgus Fc gamma RIIB …. The test is described as above.
The target in test [16] is T8, Recombinant Cynomolgus Fc gamma …. The test is described as above.
For test [17], the target named is T3, Recombinant Human Fc gamma RIIIA/CD16a …. Nature of the test: SPR (Biacore T200): human FcγRIIIa immobilised directly on a CM5 chip, antibody as analyte; RU plotted against antibody concentration. (SPR reads the build-up and loss of mass on a sensor chip optically.)
Test [18] addresses T5, Recombinant Human Fc gamma RIIIB/CD16b …. The test is described as follows: SPR (Biacore T200): human FcγRIIIb immobilised directly on a CM5 chip, antibody as analyte; RU plotted against antibody concentration.
The target of test [19] is T9, Recombinant Human Fc gamma RIIA/CD32a (R167) Protein (R&D Systems), His-tagged (human, UniProt P12318 36-218).
T9 construct: also called human FcγRIIa; hFcγRIIa
T9 chain: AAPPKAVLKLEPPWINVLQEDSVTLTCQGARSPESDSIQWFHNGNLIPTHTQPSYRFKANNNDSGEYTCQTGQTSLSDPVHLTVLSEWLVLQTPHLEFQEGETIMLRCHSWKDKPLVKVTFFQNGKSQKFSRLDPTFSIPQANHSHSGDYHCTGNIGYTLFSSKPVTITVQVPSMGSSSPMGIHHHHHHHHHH
Nature of the test: SPR (Biacore T200); receptor immobilized directly on CM5 chip, antibody as analyte at 4.7 µM.

Test [20] deals with T10, human FcRn (human neonatal Fc receptor large subunit p51 and beta2-microglobulin), biotinylated (human, UniProt P55899 24-297; P61769 21-119, biotinylated (site not stated)). Nature of the test: BLI (Octet RED384), biotinylated FcRn on streptavidin biosensor, binding and dissociation at pH 6.0.
T10 sequence (P55899 24-297 limits assumed, chain 1 of 2): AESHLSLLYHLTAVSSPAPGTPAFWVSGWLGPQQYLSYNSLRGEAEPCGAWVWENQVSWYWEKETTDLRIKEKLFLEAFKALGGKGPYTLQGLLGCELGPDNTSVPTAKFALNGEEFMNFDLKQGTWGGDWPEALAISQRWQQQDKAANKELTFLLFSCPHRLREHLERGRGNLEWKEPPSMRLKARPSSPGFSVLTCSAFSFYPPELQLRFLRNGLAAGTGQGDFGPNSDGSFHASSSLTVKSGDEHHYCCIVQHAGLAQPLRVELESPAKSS
T10 sequence (P61769 21-119 limits assumed, chain 2 of 2): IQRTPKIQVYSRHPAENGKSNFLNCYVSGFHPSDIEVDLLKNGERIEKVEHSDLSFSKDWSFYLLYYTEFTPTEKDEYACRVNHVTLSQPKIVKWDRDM
Test [21] addresses T11, Recombinant Cynomolgus Monkey Fc gamma RI/CD64 Protein, CF (R&D Systems), His-tagged (cynomolgus, UniProt P12314 11-288 (human entry)).
T11 construct: also called cynomolgus FcγRI; cFcγRI
T11 chain: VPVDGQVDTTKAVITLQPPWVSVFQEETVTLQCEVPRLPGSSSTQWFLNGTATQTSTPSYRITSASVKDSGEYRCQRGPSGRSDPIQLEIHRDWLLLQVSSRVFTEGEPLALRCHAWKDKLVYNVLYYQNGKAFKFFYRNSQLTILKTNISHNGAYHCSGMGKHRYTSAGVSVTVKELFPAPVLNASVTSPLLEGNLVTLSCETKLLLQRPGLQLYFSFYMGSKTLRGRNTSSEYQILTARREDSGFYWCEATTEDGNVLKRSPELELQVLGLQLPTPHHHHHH
Nature of the test: SPR (Biacore T200); His-tagged receptor captured on anti-His antibody chip, antibody as analyte at 4.7 µM.

The target of test [22] is T10, human FcRn (human neonatal Fc receptor …). Nature of the test: BLI (Octet RED384), biotinylated FcRn on streptavidin biosensor, binding at pH 6.0, dissociation at pH 7.4; dissociation at pH 7.4 after binding at pH 6.0. (In general: BLI is a label-free optical method that tracks binding on a fibre tip over time.)

B1: L234A/L235A/D265A (LALA-DA) variant of IgG1 WT of the anti-EGFR antibody panitumumab (antibody)
heavy: QVQLQESGPGLVKPSETLSLTCTVSGGSVSSGDYYWTWIRQSPGKGLEWIGHIYYSGNTNYNPSLKSRLTISIDTSKTQFSLKLSSVTAADTAIYYCVRDRVTGAFDIWGQGTMVTVSSASTKGPSVFPLAPSSKSTSGGTAALGCLVKDYFPEPVTVSWNSGALTSGVHTFPAVLQSSGLYSLSSVVTVPSSSLGTQTYICNVNHKPSNTKVDKRVEPKSCDKTHTCPPCPAPEAAGGPSVFLFPPKPKDTLMISRTPEVTCVVVAVSHEDPEVKFNWYVDGVEVHNAKTKPREEQYNSTYRVVSVLTVLHQDWLNGKEYKCKVSNKALPAPIEKTISKAKGQPREPQVYTLPPSREEMTKNQVSLTCLVKGFYPSDIAVEWESNGQPENNYKTTPPVLDSDGSFFLYSKLTVDKSRWQQGNVFSCSVMHEALHNHYTQKSLSLSPGK
light: not shown
notes: Mutations in both CH2 domains; positions are EU numbers
Take B1: the “binding response (RU)” value was 24 RU in test [1]; 20 RU in [2]; 0.4 RU in [3]; -2.2 RU in test [4]; 0.3 RU in [5]; 25 RU in [6]. Also, the “binding response (RU)” value in [7] is 110 RU; in test [8], 8.4 RU; in [9], 24 RU; in [10], 20 RU; in test [11] it was 0.4 RU; in [12], -2.2 RU. In addition, the “binding response (RU)” value came to 0.3 RU in test [13], 25 RU in [14], 110 RU in test [15] and 8.4 RU in test [16]. Moreover, the binding result in test [17] and in test [18] was “no binding (tested: 4.7 µM)” each time.

B2: IgG1 WT of the anti-EGFR antibody panitumumab (IgG2 Fc region replaced with a human wildtype IgG1 Fc region) (antibody)
heavy: not shown
light: not shown
notes: The legends were followed; also called anti-EGFR antibody IgG1 WT
B2: the “binding response (RU)” value in [19] was 1700 RU; in test [1] it was 1400 RU; in [2], 650 RU; in [3], 2400 RU; in test [4], 530 RU; in test [5], 250 RU. For the same molecule, the “binding response (RU)” value is 910 RU in test [6], 840 RU in test [7], 2800 RU in test [8] and 6700 RU in test [21]. In [20], this molecule returned a Kd of 5.8 nM. Also, in test [22], the koff was found to be 2.1 s⁻¹.

Broadly, the Kd is the free concentration of one partner at which half of the binding sites on the other are occupied at equilibrium, for simple one-to-one binding. As a reminder, the koff is a measure of how fast the partners let go of each other.
